The values that follow are results of earlier work, collected in PMC9442343.

For this series, the target named is IL-18 (Homo sapiens) (UniProt Q14116).
Chain of IL-18 (Homo sapiens) (Q14116 37-193): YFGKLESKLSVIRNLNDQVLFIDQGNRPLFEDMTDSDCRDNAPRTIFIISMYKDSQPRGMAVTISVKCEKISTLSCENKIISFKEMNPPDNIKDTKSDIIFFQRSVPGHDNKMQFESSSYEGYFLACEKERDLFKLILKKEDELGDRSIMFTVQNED

Chain of IL-18BP (O95998 31-194): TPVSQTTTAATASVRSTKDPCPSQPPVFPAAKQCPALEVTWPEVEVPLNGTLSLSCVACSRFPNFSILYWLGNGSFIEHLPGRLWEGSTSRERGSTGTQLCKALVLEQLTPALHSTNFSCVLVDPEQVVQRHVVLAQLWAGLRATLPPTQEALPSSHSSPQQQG

Broadly, the Kd is the equilibrium constant for the complex coming apart. IL-18BP (from UniProt O95998): the Kd is 0.4 nM.
